The chains are these.
T1: rat ALK-1 cell surface (rat, UniProt P80203)
T1 chain: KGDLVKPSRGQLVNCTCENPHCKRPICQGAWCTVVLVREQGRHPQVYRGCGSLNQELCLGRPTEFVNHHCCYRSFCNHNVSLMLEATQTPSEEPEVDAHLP

T2: cynomolgus ALK-1 cell surface (cynomolgus monkey)
T2 chain: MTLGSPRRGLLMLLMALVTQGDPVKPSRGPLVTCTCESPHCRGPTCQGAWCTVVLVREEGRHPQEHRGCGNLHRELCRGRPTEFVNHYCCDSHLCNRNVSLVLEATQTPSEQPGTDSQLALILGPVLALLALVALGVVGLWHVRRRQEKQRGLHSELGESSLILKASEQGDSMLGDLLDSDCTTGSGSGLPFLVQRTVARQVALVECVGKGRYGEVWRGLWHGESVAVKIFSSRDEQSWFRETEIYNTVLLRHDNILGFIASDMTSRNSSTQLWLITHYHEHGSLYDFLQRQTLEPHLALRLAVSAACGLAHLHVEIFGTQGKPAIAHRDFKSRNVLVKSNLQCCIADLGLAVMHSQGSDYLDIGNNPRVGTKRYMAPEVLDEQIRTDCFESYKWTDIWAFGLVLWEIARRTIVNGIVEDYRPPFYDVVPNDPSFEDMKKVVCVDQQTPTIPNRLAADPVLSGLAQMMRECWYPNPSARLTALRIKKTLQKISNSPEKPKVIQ

T3: cynomolgus ALK-1/Fc (cynomolgus monkey)
T3 chain: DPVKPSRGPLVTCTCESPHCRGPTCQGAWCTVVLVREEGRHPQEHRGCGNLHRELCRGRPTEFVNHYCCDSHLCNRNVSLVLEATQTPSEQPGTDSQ

B1: 1.12.1 (antibody, V domains shown)
VH: QVQLQESGPGLVKPSQTLSLTCTVSGGSMSSGEYYWNWIRQHPGKGLEWIGYIYYSGSTYYNPSLKSRVTISVDTSKNQFSLKLSSVTAADTAVYYCARESVAGFDYWGQGTLVTVSS
VL: not shown
B2: 4.68.1 (antibody, V domains shown)
VH: B1 VH with M29I, E33D, S101D, V102I, Y107P
VL: not shown
B3: 4.62.1 (antibody, V domains shown)
VH: B1 VH with M29I, E33D, V102T, A103D, F105M, Y107V, L113T
VL: not shown
B4: 4.72.1 (antibody, V domains shown)
VH: B1 VH with M29I, N37S, Y54F, V73L, V102T, A103D, F105M, Y107V, L113T
VL: EIVLTQSPGTLSLSPGERATLSCRASQSVSSSYLAWYQRKPGQAPRLLIYGVSSRATGIPDRFSGSGSGTDFTLTISRLEPEDFAVYYCQQYGSSMITFGQGTRLEIK
B5: 1.162.1 (antibody, V domains shown)
VH: B1 VH with T21I, M29I, N37S, V69L, S101G, V102I, A103G, G104A, Y107I, L113M
VL: B4 VL with R39Q, V52A, S77I, E80D, Q91R, M96P
B6: 4.24.1 (antibody, V domains shown)
VH: B1 VH with M29I, G32N, E33D, V102T, A103D, F105M, Y107V, L113T
VL: B4 VL with I2N, S32N, R39Q, V52A, R55G, Q91H, M96P
B7: 5.13.1 (antibody, V domains shown)
VH: B1 VH with M29I, E33D, S101G, V102L, A103E, G104A, Y107I, L113M, V116D
VL: B4 VL with R39Q, G51D, V52A, Q91H, M96L, I97L, Q101G, R104K, L105V
B8: 1.12.1(D19A) (antibody, V domains shown)
VH: B1 VH
VL: not shown
B9: 4.58.2 (antibody, V domains shown)
VH: B1 VH with M29I, E33D, D74A, S101A, V102T, A103E
VL: B4 VL with S31T, S32T, R39Q, V52A, V86L, Q91H, S94T, M96S
B10: 4.24.2 (antibody, V domains shown)
VH: B1 VH with M29I, G32N, E33D, V102T, A103D, F105M, Y107V, L113T
VL: B4 VL with I2N, S32N, R39Q, V52A, R55G, Q91H, M96P
B11: 1.14.2 (antibody, V domains shown)
VH: B1 VH with Q16E, M29V, E33D, H42P, Y60N, S101A, A103S, G104A
VL: B4 VL with S32T, Y37H, R39Q, T57S, I59V, M96P
B12: 4.72.2 (antibody, V domains shown)
VH: B1 VH with M29I, N37S, Y54F, V73L, V102T, A103D, F105M, Y107V, L113T
VL: B4 VL
B13: 4.38.1 (antibody, V domains shown)
VH: QVQLQESGPGLVKPSQTLSLTCTVSGGSISSGDYYWSWIRQHPGKGLEWIGYIYYSGSTYYNPSLKSRVTISIDTSKNQFSLKLSSVTAADTAVYYCARERDYGGGFDYWGQGTLVTVSS
VL: not shown
B14: 1.183.2 (antibody, V domains shown)
VH: QVQLQESGPGLVKPSETLSLTCTVSGGSISSYYWSWIRQPPGKGLEWIGYIYYSGSTNYNPSLKSRVTISVDTSKNQFSLKLSSVTAADTAVYYCAREDDSSGCPYFDYWGQGTLVTASS
VL: EIVMTQSPATLSVSPGERATLSCRASQSVSSNLAWYQQKPGQAPRVLIYGASTRATGIPVRFSGSGSGTEFTLTISSLQSEDFAVYYCQQYNNWPFTFGPGTKVDIK
B15: 4.68.2 (antibody, V domains shown)
VH: B1 VH with M29I, E33D, S101D, V102I, Y107P
VL: not shown
B16: 5.13.3 (antibody, V domains shown)
VH: B1 VH with M29I, E33D, S101G, V102L, A103E, G104A, Y107I, L113M, V116D
VL: B4 VL with R39Q, G51D, V52A, Q91H, M96L, I97L, Q101G, R104K, L105V

Substitutions are numbered along the chain they refer to. Names and notes keep the numbering of the source.

The target in the first experiment is T1, rat ALK-1 cell surface. The experiment is described as follows: FACS. For orientation: In flow cytometry, cells or beads pass a laser one at a time.
As to B1, the Kd is over 100 nM.

The target of another experiment is T2, cynomolgus ALK-1 cell surface. As to the kind of experiment: FACS.
B1 registered a Kd of 2 nM.
Same read-out and setting: for B2 the value was 9 nM; for B3, 0.78 nM.
Same read-out and setting: for B4 the value was 3.8 nM.
Molecule B5 displayed a Kd of 3 nM.
For the molecule B6, the Kd turned out to be 3.1 nM.
As to B7, the Kd was 1.6 nM.

Another experiment shares this target. As to the kind of experiment: FACS. This is another data set of the same source.
In turn, B1 displayed a Kd of 2 nM.
B8: the Kd came out at 3.8 nM.

For the next experiment, the target named is human ALK-1/Fc (human, UniProt P37023). The experiment is described as follows: SPR, bivalent.
The molecule B9 yielded a Kd of 0.04 nM.
The molecule B10 yielded a Kd of 0.07 nM.
Regarding B5, the Kd turned out to be 0.018 nM.
Still for that read-out and setting: for B11 the value was 0.076 nM; for B12, 0.073 nM.
Same read-out and setting: for B13 the value was 0.1 nM; for B14, 0.22 nM.

The target in another experiment is T3, cynomolgus ALK-1/Fc. As to the kind of experiment: SPR, bivalent.
B3 came in with a Kd of 0.019 nM.
Same read-out and setting: for B15 the value was 0.32 nM.
For B9, the Kd was 0.13 nM.
As to B10, the Kd stood at 0.43 nM.
Molecule B16 displayed a Kd of 0.19 nM.
Take B5: the Kd came out at 0.062 nM.
For B11, the Kd is 0.28 nM.
Molecule B12 registered a Kd of 0.28 nM.
As to B13, the Kd was determined as 0.15 nM.
On to B14, for which the Kd worked out at 1.8 nM.

The values above are taken from patent publication US9221915 (dated 2015).
